Measurements reported in publication PMC10279526, “Structural basis of centromeric cohesion protection” (Nature Structural & Molecular Biology, 2023).
Non-standard residues stand in square brackets, D forms with d. No end group written: not given here. pT = C[C@@H](OP(=O)(O)O)[C@H](N)C(=O)O

T1: SA2–SCC1 complex (SA2 amino acid residues 80–1060 with SCC1 amino acid residues 281–420) (UniProt Q8N3U4 80-1060; O60216 281-420)
T1 construct: SA2 (STAG2), cohesin subunit, residues 80-1060; SCC1 (RAD21, Mcd1), cohesin subunit, residues 281-420; also called cohesin subcomplex SA2–SCC1; CES
T1 sequence (looked up) 1: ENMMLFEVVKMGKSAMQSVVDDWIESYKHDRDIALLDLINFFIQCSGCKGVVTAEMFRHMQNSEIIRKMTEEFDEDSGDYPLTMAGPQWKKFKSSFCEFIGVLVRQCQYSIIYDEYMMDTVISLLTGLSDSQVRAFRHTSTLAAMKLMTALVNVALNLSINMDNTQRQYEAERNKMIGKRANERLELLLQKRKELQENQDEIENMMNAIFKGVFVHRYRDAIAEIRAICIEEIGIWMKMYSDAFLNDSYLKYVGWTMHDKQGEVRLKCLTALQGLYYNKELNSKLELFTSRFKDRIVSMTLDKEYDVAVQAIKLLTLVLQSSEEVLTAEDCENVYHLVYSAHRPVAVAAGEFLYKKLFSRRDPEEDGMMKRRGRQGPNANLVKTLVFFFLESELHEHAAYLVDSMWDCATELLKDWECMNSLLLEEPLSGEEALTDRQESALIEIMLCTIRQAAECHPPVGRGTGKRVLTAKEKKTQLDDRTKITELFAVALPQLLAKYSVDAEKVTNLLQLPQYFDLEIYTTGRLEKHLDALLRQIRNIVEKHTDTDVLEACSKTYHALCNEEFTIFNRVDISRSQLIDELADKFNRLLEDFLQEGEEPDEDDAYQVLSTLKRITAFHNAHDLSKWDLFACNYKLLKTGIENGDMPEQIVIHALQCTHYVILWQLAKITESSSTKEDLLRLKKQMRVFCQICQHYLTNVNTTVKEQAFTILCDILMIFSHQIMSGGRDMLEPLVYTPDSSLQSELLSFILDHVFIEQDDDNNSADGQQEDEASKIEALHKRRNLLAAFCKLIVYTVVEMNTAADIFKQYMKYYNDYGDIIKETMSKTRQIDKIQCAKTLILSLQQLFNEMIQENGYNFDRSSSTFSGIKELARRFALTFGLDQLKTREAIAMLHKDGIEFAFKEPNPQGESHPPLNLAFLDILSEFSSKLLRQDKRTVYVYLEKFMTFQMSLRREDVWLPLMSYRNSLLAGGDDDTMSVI
T1 sequence (looked up) 2: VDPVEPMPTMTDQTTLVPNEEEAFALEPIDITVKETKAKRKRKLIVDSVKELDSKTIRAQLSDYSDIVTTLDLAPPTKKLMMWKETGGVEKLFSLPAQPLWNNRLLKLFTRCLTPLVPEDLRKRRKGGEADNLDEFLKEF

B1: SGO1 peptide spanning amino acids 331–349 containing phosphorylated pT346 (SNDAYNFNLEEGVHLpTPFR) (peptide)
peptide: SNDAYNFNLEEGVHL[pT]PFR
notes: Shugoshin 1 (SGO1), human, residues 331-349, T346 phosphorylated; also called T346-phosphorylated SGO1 fragment; SGO1 331–349 pT346
B2: SGO1 peptide spanning amino acids 331–341 (SNDAYNFNLEE) (peptide)
peptide: SNDAYNFNLEE
notes: Shugoshin 1 (SGO1), human, residues 331-341 with the YxF motif; also called SGO1 331–341; nonphosphorylated SGO1 peptide

Molecular target: T1, SA2–SCC1 complex (SA2 amino acid …)
Assay: ITC; performed as described previously (ref. 21); data analysed with Origin 7.0; SGO1 peptides with SA2–SCC1
Details: both partners purified

Row | Kd | Binder
1 | 2.3 ± 0.4 µM | B1
2 | 13.5 ± 1.4 µM | B2
